1 substance from article PMC7935978 can be followed below.

In the data set the test system is FUS-Gal4. Nature of the data set: single-molecule (DNA curtains, koff/kon). The conditions noted are these: condensate-DNA interaction; protein label and DNA substrate inferred; 40 mM Tris-HCl pH 7.5, 150 mM KCl, 2 mM MgCl2, 1 mM DTT, 0.2 mg/ml BSA; EMSA 30 min at room temperature. A general note: A gel shift assay detects complexes by their altered migration in electrophoresis.

A word on the Kd: it is the free concentration of one partner at which half of the binding sites on the other are occupied at equilibrium, for simple one-to-one binding. A high value points to lower affinity.

Lambda DNA + 7x Gal4 sites showed a dissociation constant Kd of 800 pM.
